This is an account of results in article PMC11772769, “Selective cargo and membrane recognition by SNX17 regulates its interaction with Retriever” (EMBO Reports, 2024).

In the assay the target is Peptide SNX17_(CT-18) (UniProt Q15036). Nature of the assay: fluorescence polarisation. (In general: In fluorescence polarisation assays a small probe gives low polarisation when free and higher when bound to something large.)

As to “VPS26C-VPS35L_(110-598) complex (from UniProt O14972 1-297; Q7Z3J2 110-598)”, the dissociation constant (Kd) (in general, a measure of binding affinity in units of concentration) was 5.3 µM.
